According to article PMC5668902:

Substrate: O=C(O)C(=O)O
Assay: purified protein
Details: pH 4.2 acetate buffer, 25 °C, free enzyme, not immobilised

B1: Oxalate decarboxylase (OxDC), wild type, His6-tagged (Bacillus subtilis subsp. subtilis str. 168) (protein)
chain: MKKQNDIPQPIRGDKGATVKIPRNIERDRQNPDMLVPPETDHGTVSNMKFSFSDTHNRLEKGGYAREVTVRELPISENLASVNMRLKPGAIRELHWHKEAEWAYMIYGSARVTIVDEKGRSFIDDVGEGDLWYFPSGLPHSIQALEEGAEFLLVFDDGSFSENSTFQLTDWLAHTPKEVIAANFGVTKEEISNLPGKEKYIFENQLPGSLKDDIVEGPNGEVPYPFTYRLLEQEPIESEGGKVYIADSTNFKVSKTIASALVTVEPGAMRELHWHPNTHEWQYYISGKARMTVFASDGHARTFNYQAGDVGYVPFAMGHYVENIGDEPLVFLEIFKDDHYADVSLNQWLAMLPETFVQAHLDLGKDFTDVLSKEKHPVVKKKCSK
- Km: 12 ± 3 mM
- kcat: 158 ± 13 s⁻¹
- kcat/Km: 13000 ± 3000 M⁻¹ s⁻¹
